Assay results reported in the RNAGym collection of RNA variant scans (doi:10.7554/elife.80360).

B1: HDV Ribozyme (parent)
chain: GGCCGGCAUGGUCCCAGCCUCCUCGCUGGCGCCGGCUGGGCAACAUUCCGAGGGGACCGUCCCCUCGGUAAUGGCGAAUGGGACCCA

Variants of: B1
Test: self-cleavage, relative activity (ratio to wild type); higher = more cleavage; co-transcriptional
Variant GGCCGGCAUGGGCCAAGCCUCCUCGCUGGCGCCGGCUGGGCAACAUUCCGAGGGGACCGUCCCCUCGGUAAUGGCGAAUGGGACCCA [U12G C15A] has a self-cleavage of 0.237. Work on GGCCGGCAUGGGCCUAGCCUCCUCGCUGGCGCCGGCUGGGCAACAUUCCGAGGGGACCGUCCCCUCGGUAAUGGCGAAUGGGACCCA [U12G C15U] yielded a self-cleavage of 0.453. Work on GGCCGGCAUGGGCCCAGCCUCCUCGCUGGCGCCGGCUGGGCAACAUUCCGAGGGGACCGUCCCCUCGGUAAUGGCGAAUGGGACCCG [U12G A87G] yielded a self-cleavage of 0.723. GGCCGGCAUGGGCCCAGCCUCCUCGCUGGCGCCGGCUGGGCAACAUUCCGAGGGGACCGUCCCCUCGGUAAUGGCGAAUGGGACCCC [U12G A87C] showed a self-cleavage of 0.749. For GGCCGGCAUGGGCCCAGCCUCCUCGCUGGCGCCGGCUGGGCAACAUUCCGAGGGGACCGUCCCCUCGGUAAUGGCGAAUGGGCCCCA [U12G A83C], the self-cleavage was 1.17. With GGCCGGCAUGGGCCCAGCCUCCUCGCUGGCGCCGGCUGGGCAACAUUCCGAGGGGACCGUCCCCUCGGUAGUGGCGAAUGGGACCCA [U12G A71G] the self-cleavage was 0.594. Work on GGCCGGCAUGGGCCCAGCCUCCUCGCUGGCGCCGGCUGGGCAACAUUCCGAGGGGACCGUCCCCUCGGUACUGGCGAAUGGGACCCA [U12G A71C] yielded a self-cleavage of 0.712. For GGCCGGCAUGGGCCCAGCCUCGUCGCUGGCGCCGGCUGGGCAACAUUCCGAGGGGACCGUCCCCUCGGUAAUGGCGAAUGGGACCCA [U12G C22G], the self-cleavage was 0. Work on GGCCGGCAUGGGCCCAGCCUCAUCGCUGGCGCCGGCUGGGCAACAUUCCGAGGGGACCGUCCCCUCGGUAAUGGCGAAUGGGACCCA [U12G C22A] yielded a self-cleavage of 0.277. GGCCGGCAUGGGCCCAGCCUCUUCGCUGGCGCCGGCUGGGCAACAUUCCGAGGGGACCGUCCCCUCGGUAAUGGCGAAUGGGACCCA [U12G C22U] showed a self-cleavage of 0.256. For GGCCGGCAUGGGCCCAGCCUCCUCGCUGGCGCCGGCUGGGCAACAUUCCGAGGGGACCGUCCCCUCGGUAAUGGCGUAUGGGACCCA [U12G A77U], the self-cleavage was 0.443. GGCCGGCAUGGGCCCAGCCUCCUCGCUGGCGCCGGCUGGGCAACAUUCCGAGGGGACCGUCCCCUCGGUAAUGGCGGAUGGGACCCA [U12G A77G] gave a self-cleavage of 0.443. GGCCGGCAUGGGCCCAGCCUCCUAGCUGGCGCCGGCUGGGCAACAUUCCGAGGGGACCGUCCCCUCGGUAAUGGCGAAUGGGACCCA [U12G C24A] showed a self-cleavage of 0.65. Work on GGCCGGCAUGGGCCCAGCCUCCUCGCUGGCGCCGGCUGGGCAACAUUCCGAGGGGACCGUCCCCUCGGUAAUGGCGACUGGGACCCA [U12G A78C] yielded a self-cleavage of 0.0594. Work on GGCCGGCAUGGGCCCAGCCUCCUCGCUGGCGCCGGCUGGGCAACAUUCCGAGGGGACCGUCCCCUCGGUAAUGGCGAGUGGGACCCA [U12G A78G] yielded a self-cleavage of 0.612. GGCCGGCAUGGGCCCAGCCUCCUCGCUGGCGCCGGCUGGGCAACAUUCCGCGGGGACCGUCCCCUCGGUAAUGGCGAAUGGGACCCA [U12G A51C] gave a self-cleavage of 0.415. GGCCGGCAUGGGCCCAGCCUCCUCGCUGGCGCCGGCUGGGCAACAUUCCGGGGGGACCGUCCCCUCGGUAAUGGCGAAUGGGACCCA [U12G A51G] gave a self-cleavage of 0.867. For GGCCGGCAUGGGCCCAGCCUACUCGCUGGCGCCGGCUGGGCAACAUUCCGAGGGGACCGUCCCCUCGGUAAUGGCGAAUGGGACCCA [U12G C21A], the self-cleavage was 0. In the case of GGCCGGCAUGGGCCCAGCCUGCUCGCUGGCGCCGGCUGGGCAACAUUCCGAGGGGACCGUCCCCUCGGUAAUGGCGAAUGGGACCCA [U12G C21G], the self-cleavage is reported as 0.0665. For GGCCGGCAUGGGCCCAGGCUCCUCGCUGGCGCCGGCUGGGCAACAUUCCGAGGGGACCGUCCCCUCGGUAAUGGCGAAUGGGACCCA [U12G C18G], the self-cleavage was 0. For GGCCGGCAUGGGCCCAGACUCCUCGCUGGCGCCGGCUGGGCAACAUUCCGAGGGGACCGUCCCCUCGGUAAUGGCGAAUGGGACCCA [U12G C18A], the self-cleavage was 0.151. Variant GGCCGGCAUGGGCCCAGUCUCCUCGCUGGCGCCGGCUGGGCAACAUUCCGAGGGGACCGUCCCCUCGGUAAUGGCGAAUGGGACCCA [U12G C18U] has a self-cleavage of 0.361. In the case of GGCCGGCAUGGGCCCAGCCUCCUCGCUGGCGCCGGCUGGGCAACAUUCCGAGGGGACCGUCCCCUCGGUCAUGGCGAAUGGGACCCA [U12G A70C], the self-cleavage is reported as 0.462. Variant GGCCGGCAUGGGGCCAGCCUCCUCGCUGGCGCCGGCUGGGCAACAUUCCGAGGGGACCGUCCCCUCGGUAAUGGCGAAUGGGACCCA [U12G C13G] has a self-cleavage of 0.639. GGCCGGCAUGGGUCCAGCCUCCUCGCUGGCGCCGGCUGGGCAACAUUCCGAGGGGACCGUCCCCUCGGUAAUGGCGAAUGGGACCCA [U12G C13U] showed a self-cleavage of 0.931. With GGCCGGCAUGGGCCCAGCAUCCUCGCUGGCGCCGGCUGGGCAACAUUCCGAGGGGACCGUCCCCUCGGUAAUGGCGAAUGGGACCCA [U12G C19A] the self-cleavage was 0.161. In the case of GGCCGGCAUGGGCCCAGCGUCCUCGCUGGCGCCGGCUGGGCAACAUUCCGAGGGGACCGUCCCCUCGGUAAUGGCGAAUGGGACCCA [U12G C19G], the self-cleavage is reported as 0. GGCCGGCAUGGGCCCAGCUUCCUCGCUGGCGCCGGCUGGGCAACAUUCCGAGGGGACCGUCCCCUCGGUAAUGGCGAAUGGGACCCA [U12G C19U] showed a self-cleavage of 0.0378. GGCCGGCAUGGGCGCAGCCUCCUCGCUGGCGCCGGCUGGGCAACAUUCCGAGGGGACCGUCCCCUCGGUAAUGGCGAAUGGGACCCA [U12G C14G] gave a self-cleavage of 0. GGCCGGCAUGGGCACAGCCUCCUCGCUGGCGCCGGCUGGGCAACAUUCCGAGGGGACCGUCCCCUCGGUAAUGGCGAAUGGGACCCA [U12G C14A] showed a self-cleavage of 0.356. GGCCGGCAUGGGCCCAGCCUCCUCGCUGGCGCCGGCUGGGCAACAUUCCGAGGGGUCCGUCCCCUCGGUAAUGGCGAAUGGGACCCA [U12G A56U] showed a self-cleavage of 1.22. GGCCGGCAUGGGCCCAGCCUCCUCGCUGGCGCCGGCUGGGCAACAUUCCGAGGGGGCCGUCCCCUCGGUAAUGGCGAAUGGGACCCA [U12G A56G] showed a self-cleavage of 0.767.
